In paper PMC11661108 (bioRxiv, 2024):
Where “and” joins values, the source holds several entries; their conditions need not be identical. Identical values can stand only once.

Tests used:
Assay in all cases: BLI
RBD of SARS-CoV-2 BA.1 = RBD of SARS-CoV-2 BA.1 (SARS-CoV-2 Omicron BA.1, strain, biotin (Avi tag))
RBD of SARS-CoV-2 EG.5.1 = RBD of SARS-CoV-2 EG.5.1 (SARS-CoV-2 Omicron EG.5.1, strain, biotin (Avi tag))
RBD of SARS-CoV-2 HV.1 = RBD of SARS-CoV-2 HV.1 (SARS-CoV-2 Omicron HV.1, strain, biotin (Avi tag))

B1: Fab-52 (Fab, V domains shown)
VH: EVQLVQSGGDLAPPGGSLRLSCEASGIIVSSNYMTWVRQAPGKGLEWVSLIFAGGSTFYADSVKGRFTVSRDNSKNTLYLQMSSLKPEDTAVYFCARDLREMGGLDFWGQGALVTVSS
VL: DIQMTQSPSSVSASIGDTVTITCRASQGIPSWVAWYQQKPGKAPKLLIYGASNLQRGVPSRFSGSGSGTDFTLTISSLQPEDLAVYYCHQSDSLPGIFGGGTKVEIK
Kd (RBD of SARS-CoV-2 BA.1): 1.1 nM
Kd (RBD of SARS-CoV-2 EG.5.1): 10 nM and 7 nM
Kd (RBD of SARS-CoV-2 HV.1): 12.2 nM and 9.1 nM
